Source: the RNAGym collection of RNA variant scans (doi:10.7554/elife.80360)

B1: HDV Ribozyme (parent)
chain: GGCCGGCAUGGUCCCAGCCUCCUCGCUGGCGCCGGCUGGGCAACAUUCCGAGGGGACCGUCCCCUCGGUAAUGGCGAAUGGGACCCA

Variants of: B1
Experiment: self-cleavage, relative activity (ratio to wild type); higher = more cleavage; co-transcriptional

Variant | self-cleavage
C21G A56C | 0.0386
C21G A70U | 0.111
C21G A71U | 0
C21G A83C | 0
C21G A87C | 0.0594
C21G A87G | 0.0462
C21G A87U | 0.0723
C21G C24G | 0.0504
C21G C26A | 0
C21G C26U | 0.0615
C21G C30G | 0
C21G C33A | 0
C21G C33G | 0.101
C21G C33U | 0
C21G C41U | 0.0941
C21G C44A | 0
C21G C44U | 0.0898
C21G C61U | 0.032
C21G C62A | 0.119
C21G C62U | 0
C21G C84G | 0

Variant | self-cleavage
C21G C84U | 0.0231
C21G C85A | 0.0504
C21G C86U | 0.0791
C21G G31C | 0.147
C21G G31U | 0
C21G G34U | 0.0604
C21G G35U | 0.104
C21G G40U | 0.0308
C21G G52A | 0.0287
C21G G55U | 0.0755
C21G G67A | 0
C21G G73C | 0.17
C21G G73U | 0.026
C21G G76A | 0.0386
C21G G80A | 0.0196
C21G G80U | 0.0963
C21G G82A | 0.101
C21G G82C | 0.0437
C21G G82U | 0.106
C21G U27G | 0
C21G U46A | 0.147

Variant | self-cleavage
C21G U47A | 0.0773
C21G U60G | 0
C21G U65A | 0.0536
C21G U69A | 0.0426
C21G U72G | 0.0462
C21G U79G | 0.0554
C21U A42U | 0.0845
C21U A45C | 0.0256
C21U A45G | 0.291
C21U A51C | 0.332
C21U A51G | 0.228
C21U A51U | 0.308
C21U A56G | 0.315
C21U A56U | 0.3
C21U A71U | 0.572
C21U A77G | 0.232
C21U A78C | 0.058
C21U A78U | 0.148
C21U A83C | 0.108
C21U A87U | 0.368
C21U C24A | 0.0997

Variant | self-cleavage
C21U C24G | 0.0545
C21U C26A | 0.383
C21U C30A | 0.153
C21U C36U | 0.218
C21U C41A | 0.339
C21U C41U | 0.267
C21U C44A | 0.437
C21U C57U | 0.18
C21U C62U | 0.317
C21U C64U | 0.17
C21U C66G | 0.277
C21U C85G | 0.358
C21U G25A | 0.0997
C21U G29U | 0.0504
C21U G31U | 0.173
C21U G34U | 0.0354
C21U G39C | 0.201
C21U G40C | 0.166
C21U G52U | 0.182
C21U G54C | 0.292
C21U G67U | 0.174
